Data on five molecules can be found in PMC2190570.

In assay [1] the target is lamin B1Δrod mutant (human) (UniProt P20700). The assay can be described thus: binding to an immobilised lamin matrix with urea step elution.
For assay [2], the target named is wild-type lamin B1 (human) (UniProt P20700). Described as above.
In assay [3] the target is lamin B1Δrod mutant (human) (UniProt P20700). The assay can be described thus: cross-linking.
For assay [4], the target named is T1, wild-type lamin B1 (human), P20700.
T1 chain: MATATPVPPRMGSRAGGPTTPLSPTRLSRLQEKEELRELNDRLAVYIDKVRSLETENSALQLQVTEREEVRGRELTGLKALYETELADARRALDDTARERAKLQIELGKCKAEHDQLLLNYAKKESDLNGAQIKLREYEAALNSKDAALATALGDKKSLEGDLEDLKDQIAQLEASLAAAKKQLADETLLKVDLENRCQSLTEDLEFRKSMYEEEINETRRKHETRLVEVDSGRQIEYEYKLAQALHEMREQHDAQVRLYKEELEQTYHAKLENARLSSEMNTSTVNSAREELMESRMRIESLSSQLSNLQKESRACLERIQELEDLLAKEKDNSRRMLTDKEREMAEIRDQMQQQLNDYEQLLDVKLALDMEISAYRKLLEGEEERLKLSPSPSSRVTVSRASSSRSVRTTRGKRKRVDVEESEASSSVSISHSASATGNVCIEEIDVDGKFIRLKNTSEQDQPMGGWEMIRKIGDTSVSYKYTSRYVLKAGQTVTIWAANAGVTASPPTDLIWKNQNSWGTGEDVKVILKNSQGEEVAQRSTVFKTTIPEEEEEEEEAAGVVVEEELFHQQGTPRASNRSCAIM
In words: cross-linking. As to conditions: remark: other sources report otherwise.

Assay [5] has the same target. The assay can be described thus: binding to an immobilised lamin matrix with urea step elution. As to conditions: remark: other sources report otherwise.

Several values for one entry are separate records, joined by “and”; a condition that tells them apart may be missing. Equal entries are not always repeated.

For “lamin A (from UniProt P02545 1-646) (natural protein)”, the urea concentration at which the majority eluted is 2 M and 4 M in assay [1]; 7 M in assay [2].
With “wild-type lamin B1 (from UniProt P20700 1-586) (natural protein)”, in assay [1], the urea concentration at which most protein eluted is 4 M and 7 M.
“lamin B1Δrod mutant (from UniProt P20700 1-69; P20700 340-586) (natural protein)” had a stoichiometry N in assay [3] of 2.
Consider “lamin C (from UniProt P02545-2 1-572) (natural protein)”, for which, in assay [1], the urea concentration at which elution began amounted to 0.5 M and the urea concentration at which the majority eluted is 2 to 3 M. In assay [2], this molecule showed a urea concentration at which elution began of 3 M and a urea concentration at which the majority eluted of 5 to 7 M.

B1: wild-type lamin B1, P20700 1-586 (natural protein)
chain: T1 chain
On to B1, for which the stoichiometry N in assay [4] is 2. The urea concentration at which most protein eluted in assay [5] was 7 M and 4 M.
